For this experiment, the target named is B42 activation domain-EE34 prey fusion protein (yeast, pJG4-5). The experiment can be described thus: cell-based or functional assay.

β-glucuronidase reporter activity with MU-gluc substrate, combination 6 relative to combination 5, yeast two-hybrid (fold higher than combination 5) data for one substance are collected here from US20080118919A1.

For “λ cI-RR34 bait fusion protein (from UniProt P03034 1-237)”, the β-glucuronidase reporter activity with MU-gluc substrate, combination 6 relative to combination 5, yeast two-hybrid (fold higher than combination 5) is 10.
